This note sets out measurements from the supplement of paper PMC10567573.

This series is described as follows: protein stability index of a GFP-peptide fusion (GPS, HEK-293T) (PSI 1-6); higher = more stable. The conditions noted are these: c terminus: a fixed tail appended.

± gives the standard deviation.
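Note: 24-mer peptide tiles fused after GFP, lentivirally expressed, FACS-sorted into six equal bins by GFP/DsRed ratio, decoded by Illumina sequencing, PSI is the read-weighted mean bin number.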

On to PHKERYFDRVDENNPEYLRERNMA [ADD1], for which the protein stability index was found to be 4.47 ± 0.36 (treatment: DMSO) and 4.69 ± 0.14 (treatment: MLN4924 1 uM, 8 h).

Consider PIGCDGVLFSTHTLDKCGICQGDG [ADAMTSL2], for which the protein stability index was determined as 3.62 ± 0.26 (treatment: DMSO) and 3.79 ± 0.47 (treatment: MLN4924 1 uM, 8 h).

Consider PKFKKWCDDYFFIAHRGERRGIGG [CPOX], for which the protein stability index was 2.54 ± 0.14 (treatment: DMSO) and 2.56 ± 0.26 (treatment: MLN4924 1 uM, 8 h).

Regarding PLCNFNITESFTELARIVLLRHGM [RAB40B], the protein stability index by setting is: (treatment: DMSO) 2.8 ± 0.87; (treatment: MLN4924 1 uM, 8 h) 2.19 ± 0.97.

On to PLFYPGIRAGRKNAAPLTIRPPTD [TRIM39], for which the protein stability index is, setting by setting: (treatment: DMSO) 3.56 ± 0.25; (treatment: MLN4924 1 uM, 8 h) 3.58 ± 0.15.

As for PLLCPGCQGQPQGKAVVSHSKGHK [ELOA2], the protein stability index is, setting by setting: (treatment: DMSO) 4.12 ± 0.43; (treatment: MLN4924 1 uM, 8 h) 4.53 ± 0.42.

For PLRSSLPISLQATPATPATLSASS [TFE3], the protein stability index (treatment: DMSO) came out at 4.47 ± 0.1 and the protein stability index (treatment: MLN4924 1 uM, 8 h) came out at 4.57 ± 0.14.

PLSPPTAPDRATAVATASRLGPYV [TRIB3] showed a protein stability index (treatment: DMSO) of 4.72 ± 0.26 and a protein stability index (treatment: MLN4924 1 uM, 8 h) of 4.65 ± 0.091.

Turning to PNHLGGGAVVLGAESHASKDVAID [STX5], the protein stability index reads like this: (treatment: DMSO) 5.1 ± 0.37; (treatment: MLN4924 1 uM, 8 h) 5.15 ± 0.17.

On to PPKRMLGADREFIEARRRALKRFV [SNX8], for which the protein stability index was 3.36 ± 0.43 (treatment: DMSO) and 3.62 ± 0.17 (treatment: MLN4924 1 uM, 8 h).

With PPLWAASAAGHLDVVRSLLRRGAS [FEM1A], the protein stability index (treatment: DMSO) is 3.55 ± 0.28 and the protein stability index (treatment: MLN4924 1 uM, 8 h) came to 3.43 ± 0.28.

PPPPPGLPSDGDHQVPTTAGNKAA [WASL]: the protein stability index was found to be 5.46 ± 0.33 (treatment: DMSO) and 5.43 ± 0.12 (treatment: MLN4924 1 uM, 8 h).

Take PPPPPPPPAELKAEPGFEPADCKR [CEBPB]: the protein stability index runs as follows: (treatment: DMSO) 5.52 ± 0.16; (treatment: MLN4924 1 uM, 8 h) 5.4 ± 0.28.

Turning to PPYSRLSPRDEYKPLDLSDSTLSY [SMAD6], the protein stability index is 3.89 ± 0.18 (treatment: DMSO) and 3.84 ± 0.24 (treatment: MLN4924 1 uM, 8 h).

Consider PQESAILQLFHQDGTFSPVTLALF [CLCN6], for which the protein stability index was determined as 2.45 ± 0.46 (treatment: DMSO) and 2.42 ± 0.32 (treatment: MLN4924 1 uM, 8 h).

Regarding PQGISPVSQHWATWALYNLVSVYP [ZER1], the protein stability index (treatment: DMSO) was 3 ± 0.57 and the protein stability index (treatment: MLN4924 1 uM, 8 h) came out at 2.88 ± 0.32.

In the case of PQLVSSAREGSSEPWLPLTDGRSP [PLEKHN1], the protein stability index by setting is: (treatment: DMSO) 4.83 ± 0.25; (treatment: MLN4924 1 uM, 8 h) 4.58 ± 0.085.

As to PQQTWASPAEVVDLTLDEDSRRKY [C18orf25], the protein stability index (treatment: DMSO) was 5.1 ± 0.3 and the protein stability index (treatment: MLN4924 1 uM, 8 h) worked out at 5.13 ± 0.14.

With PQVWREAATQVFFALGLGFGGVIA [SLC6A17], the protein stability index by setting is: (treatment: DMSO) 3.78 ± 0.85; (treatment: MLN4924 1 uM, 8 h) 3.4 ± 0.82.

Consider PRKVSTCTDHELENHSMYCVQCKM [TRIM9], for which the protein stability index is 4.53 ± 0.27 (treatment: DMSO) and 4.74 ± 0.33 (treatment: MLN4924 1 uM, 8 h).

Consider PRLFKEWNITKLSIEYDSEPFGKE [CRY1], for which the protein stability index runs as follows: (treatment: DMSO) 3.06 ± 0.33; (treatment: MLN4924 1 uM, 8 h) 3.46 ± 0.39.

Take PRSCSSGPAGPYLLSKKGALQSRA [PLEKHN1]: the protein stability index (treatment: DMSO) turned out to be 3.96 ± 0.52 and the protein stability index (treatment: MLN4924 1 uM, 8 h) amounted to 4.29 ± 0.39.

On to PSPPTSPPWGLGPGAGDPAPGIGP [MYCL], for which the protein stability index was found to be 4.7 ± 0.18 (treatment: DMSO) and 4.72 ± 0.069 (treatment: MLN4924 1 uM, 8 h).

On to PSTLGRCKAFSTCVSHLIIVTVHY [OR10K2], for which the protein stability index worked out at 3.07 ± 0.41 (treatment: DMSO) and 2.89 ± 0.5 (treatment: MLN4924 1 uM, 8 h).

On to PVALLLAQHKDRSTQLEMQLEKPK [MNAT1], for which the protein stability index by setting is: (treatment: DMSO) 3.84 ± 0.19; (treatment: MLN4924 1 uM, 8 h) 3.8 ± 0.12.

Regarding PVASSGEFFGSASQPAVELVSGSQ [CLINT1], the protein stability index runs as follows: (treatment: DMSO) 4.57 ± 0.16; (treatment: MLN4924 1 uM, 8 h) 4.82 ± 0.21.

Turning to PVHLVDKLPLPSTLRSHLKSFSMA [RAB40A], the protein stability index (treatment: DMSO) was 2.6 ± 0.085 and the protein stability index (treatment: MLN4924 1 uM, 8 h) is 2.63 ± 0.19.

As for PVMNGGVQTWTQPRLCYLVKEGGS [PDZK1], the protein stability index is, setting by setting: (treatment: DMSO) 2.75 ± 0.23; (treatment: MLN4924 1 uM, 8 h) 3.09 ± 0.27.

PVRTTNKISKQFVAPADVRRLLSY [ZSWIM9]: the protein stability index runs as follows: (treatment: DMSO) 2.44 ± 0.17; (treatment: MLN4924 1 uM, 8 h) 2.84 ± 0.13.
